Laboratory results as given in patent publication US20260274968A1.

Assays:
[1] = target: human IL-18 receptor complex (IL-18Rα/β) (human) (UniProt Q13478)
[2] = target: human recombinant IL-18-BP (human) (UniProt O95998)
[3] = target: human recombinant IL-18-BP (human) (UniProt O95998); assay: cell-based or functional assay

Chain of recombinant human mature IL-18 (Q14116 37-193): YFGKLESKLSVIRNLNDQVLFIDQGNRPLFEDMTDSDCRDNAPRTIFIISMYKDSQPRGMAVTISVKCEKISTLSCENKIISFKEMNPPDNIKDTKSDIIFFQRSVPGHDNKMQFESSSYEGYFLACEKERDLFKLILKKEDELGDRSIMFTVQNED
Chain of human recombinant IL-18-BP (human) (O95998 31-194 limits assumed): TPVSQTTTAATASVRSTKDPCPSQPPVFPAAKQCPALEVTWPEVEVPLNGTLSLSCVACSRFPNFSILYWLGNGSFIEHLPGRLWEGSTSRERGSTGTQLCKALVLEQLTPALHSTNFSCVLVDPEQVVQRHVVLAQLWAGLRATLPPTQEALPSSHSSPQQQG
Chain of human IL-18 receptor complex (IL-18Rα/β) (human) (Q13478 19-541, chain 1 of 2): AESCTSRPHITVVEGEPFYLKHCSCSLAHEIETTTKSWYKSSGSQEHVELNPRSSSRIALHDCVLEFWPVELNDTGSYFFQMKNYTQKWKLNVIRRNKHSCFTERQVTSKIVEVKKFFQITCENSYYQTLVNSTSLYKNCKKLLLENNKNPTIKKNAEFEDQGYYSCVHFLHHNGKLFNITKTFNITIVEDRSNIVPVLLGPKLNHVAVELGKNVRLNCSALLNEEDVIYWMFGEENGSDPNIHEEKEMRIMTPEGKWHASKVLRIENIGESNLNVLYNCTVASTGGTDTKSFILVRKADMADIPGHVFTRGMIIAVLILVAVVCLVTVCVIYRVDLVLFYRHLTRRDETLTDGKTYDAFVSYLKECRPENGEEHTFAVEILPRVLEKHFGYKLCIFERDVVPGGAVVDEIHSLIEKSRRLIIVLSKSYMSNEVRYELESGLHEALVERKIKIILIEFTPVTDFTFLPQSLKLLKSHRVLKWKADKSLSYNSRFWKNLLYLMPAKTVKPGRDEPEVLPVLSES
Chain of human IL-18 receptor complex (IL-18Rα/β) (human) (O95256 20-599, chain 2 of 2, further chain): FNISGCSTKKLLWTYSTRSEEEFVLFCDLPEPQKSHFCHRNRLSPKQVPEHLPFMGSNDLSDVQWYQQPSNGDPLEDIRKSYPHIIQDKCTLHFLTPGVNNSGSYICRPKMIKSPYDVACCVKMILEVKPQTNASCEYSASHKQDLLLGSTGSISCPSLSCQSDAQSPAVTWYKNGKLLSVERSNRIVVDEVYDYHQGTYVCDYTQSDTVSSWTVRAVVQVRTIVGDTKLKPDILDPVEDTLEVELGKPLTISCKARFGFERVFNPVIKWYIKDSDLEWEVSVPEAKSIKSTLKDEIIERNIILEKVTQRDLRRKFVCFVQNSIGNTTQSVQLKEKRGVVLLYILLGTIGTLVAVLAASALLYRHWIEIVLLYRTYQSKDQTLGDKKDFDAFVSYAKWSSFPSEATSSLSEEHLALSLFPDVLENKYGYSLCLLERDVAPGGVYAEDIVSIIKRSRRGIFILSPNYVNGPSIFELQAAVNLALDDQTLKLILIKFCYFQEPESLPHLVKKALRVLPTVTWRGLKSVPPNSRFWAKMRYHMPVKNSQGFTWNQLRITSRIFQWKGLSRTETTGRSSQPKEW

recombinant human mature IL-18 (from UniProt Q14116 37-193) (ligand)
EC50-SEAP, HEK-Blue IL-18 reporter cells, rhIL-18 titrated in medium alone (row 'Human rIL-18') [1]: 0.0317 ng/mL | EC50-SEAP, HEK-Blue IL-18 reporter cells, rhIL-18 titrated in medium with 1.25 µg/ml rhIL-18BP (row 'Human rIL-18 + BP') [2]: > 1 ng/mL | EC50-SEAP (HEK Blue IL-18), fold attenuation by 1.25 µg/ml hrIL-18-BP [3]: > 1000 fold
